Results: patent US20230242658A1 (published 2023)

What was measured:
[1] = molecular target: T1, human 4-1BB on CHO-K1 cells (human, UniProt Q07011 24-255); test: FACS, CHO-K1/hu4-1BB cells
T1 construct: whole, on cells; also called CHO-K1/hu 4-1BB; CHO-K1/hu4-1BB
Experimental: The binding abilities of the antibody molecules to a CHO-K1 cell strain highly expressing human 4-1BB (CHO-K1/hu4-1BB, GenScript, M00538) and a CHO-K1 cell strain highly expressing cynomolgus monkey 4-1BB (CHO-K1/cyno4-1BB, GenScript, M00569) were determined by flow cytometry FACS. Specifically, the cells were digested and resuspended in a complete medium, and the cell density was adjusted to 2×10⁶ cells/mL. Then, the cells were seeded in a 96-well V-bottom plate (Corning, #3894) at 100 μL/well (2×10⁵ cells/well) and centrifuged at 4° C. for 5 min, and the supernatant was discarded. Then, the serially diluted antibody molecules were added to the 96-well plate at 100 μL/well, and the mixtures were well mixed. The antibody molecules might serially diluted 3-fold from the highest final concentration 200 nM to obtain a total of 12 concentrations. hIgG1 iso (CrownBio, #C0001) was used as an isotype control. The cells were incubated at 4° C. for 1 h away from light. Then, the cells in each well were rinsed twice with 100 μL of pre-cooled FACS buffer (PBS buffer containing 0.5% BSA) and centrifuged at 500 g at 4° C. for 5 min, and then the supernatant was discarded. […] Then, the cells in each well were then rinsed twice with 200 μL of pre-cooled FACS buffer and centrifuged at 500 g at 4° C. for 5 min, and then the supernatant was discarded. Finally, a pre-cooled FACS buffer was added at 200 μL/well to resuspend the cells. The fluorescence signal values were read using a BD FACS CANTOII flow cytometer.

[2] = molecular target: T2, human PD-L1 on CHO-K1 cells (human, UniProt Q9NZQ7 19-290); test: FACS, CHO-K1/hPD-L1 cells
T2 construct: whole, on cells; also called CHO-K1/hPDL1; CHO-K1/hPD-L1
T2 sequence (Q9NZQ7 19-290): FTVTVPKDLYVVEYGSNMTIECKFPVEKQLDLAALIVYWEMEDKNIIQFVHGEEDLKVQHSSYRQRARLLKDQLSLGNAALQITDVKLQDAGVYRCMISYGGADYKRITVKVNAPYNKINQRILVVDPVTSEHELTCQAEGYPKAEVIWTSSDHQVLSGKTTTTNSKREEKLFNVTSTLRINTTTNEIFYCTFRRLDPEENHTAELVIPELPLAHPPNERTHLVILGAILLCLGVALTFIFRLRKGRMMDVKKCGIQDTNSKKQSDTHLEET

T1 sequence (Q07011 24-255): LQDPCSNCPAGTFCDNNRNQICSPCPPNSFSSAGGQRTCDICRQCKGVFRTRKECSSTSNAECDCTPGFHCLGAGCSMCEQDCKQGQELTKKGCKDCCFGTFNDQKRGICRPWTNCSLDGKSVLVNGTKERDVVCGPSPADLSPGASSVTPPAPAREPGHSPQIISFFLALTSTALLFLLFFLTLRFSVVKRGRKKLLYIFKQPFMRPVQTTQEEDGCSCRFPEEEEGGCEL

Row | binding result [1] | binding result [2] | Binder
1 | binds | binds | PR007143 (bispecific antibody, human IgG1, kappa, PD-L1x4-1BB IgG-VH: PR000265 + VH of PR007296 at heavy-chain C-terminus) light: DIQMTQSPSTLSASVGDRVTVTCRASQSIYIWLAWYQQKPGKAPNLLIYKASSLETGVPSRFSGSGSGTEFTLTISSLQPDDFATYYCQQYYGSSRTFGQGTKVEIKRTVAAPSVFIFPPSDEQLKSGTASVVCLLNNFYPREAKVQWKVDNALQSGNSQESVTEQDSKDSTYSLSSTLTLSKADYEKHKVYACEVTHQGLSSPVTKSFNRGEC heavy: EVQLVESGGGLVQPGGSLRLSCAASGFTFSSYWMSWVRQAPGKGLEWVANIKQEGSEKYYVDSVKGRFTISRDNAKNSLYLQMNSLRAEDTAVYYCARDRAVAGAFDIWGQGTMVTVSSASTKGPSVFPLAPSSKSTSGGTAALGCLVKDYFPEPVTVSWNSGALTSGVHTFPAVLQSSGLYSLSSVVTVPSSSLGTQTYICNVNHKPSNTKVDKKVEPKSCDKTHTCPPCPAPEAAGAPSVFLFPPKPKDTLMISRTPEVTCVVVDVSHEDPEVKFNWYVDGVEVHNAKTKPREEQYNSTYRVVSVLTVLHQDWLNGKEYKCKVSNKALPAPIEKTISKAKGQPREPQVYTLPPSREEMTKNQVSLTCLVKGFYPSDIAVEWESNGQPENNYKTTPPVLDSDGSFFLYSKLTVDKSRWQQGNVFSCSVMHEALHNHYTQKSLSLSPGGGSGGSEVQLVESGGGLVKPGGSLRLSCVASGFTFSDYYMSWFRQAPGKGLEWVSYISGSGTTIDYADSVKGRFTISRDNAKNSLYLQMNSLRAEDTAVYYCAREREAVAGTLDFDNWGQGTPVTVSS
2 | binds | binds | PR007135 (bispecific antibody, human IgG1, kappa, PD-L1x4-1BB IgG-VH: PR000265 + VH of PR007288 at heavy-chain C-terminus) light: DIQMTQSPSTLSASVGDRVTVTCRASQSIYIWLAWYQQKPGKAPNLLIYKASSLETGVPSRFSGSGSGTEFTLTISSLQPDDFATYYCQQYYGSSRTFGQGTKVEIKRTVAAPSVFIFPPSDEQLKSGTASVVCLLNNFYPREAKVQWKVDNALQSGNSQESVTEQDSKDSTYSLSSTLTLSKADYEKHKVYACEVTHQGLSSPVTKSFNRGEC heavy: EVQLVESGGGLVQPGGSLRLSCAASGFTFSSYWMSWVRQAPGKGLEWVANIKQEGSEKYYVDSVKGRFTISRDNAKNSLYLQMNSLRAEDTAVYYCARDRAVAGAFDIWGQGTMVTVSSASTKGPSVFPLAPSSKSTSGGTAALGCLVKDYFPEPVTVSWNSGALTSGVHTFPAVLQSSGLYSLSSVVTVPSSSLGTQTYICNVNHKPSNTKVDKKVEPKSCDKTHTCPPCPAPEAAGAPSVFLFPPKPKDTLMISRTPEVTCVVVDVSHEDPEVKFNWYVDGVEVHNAKTKPREEQYNSTYRVVSVLTVLHQDWLNGKEYKCKVSNKALPAPIEKTISKAKGQPREPQVYTLPPSREEMTKNQVSLTCLVKGFYPSDIAVEWESNGQPENNYKTTPPVLDSDGSFFLYSKLTVDKSRWQQGNVFSCSVMHEALHNHYTQKSLSLSPGGGSGGSEVQLVESGGGLVKPGGSLRLSCAASGFTFSDYYMSWFRQAPGKGLEWVSYISGSGSIIDYADSVKGRFTISRDNAKNSLYLQMNSLRAEDTAVYYCSREREAVAGTLDFDYWGQGTLVTVSS

Continued, binder first:

Row | Binder | binding result [1] | binding result [2]
3 | PR007133 (bispecific antibody, human IgG1, kappa, PD-L1x4-1BB IgG-VH: PR000265 + VH of PR007287 at heavy-chain C-terminus) light: DIQMTQSPSTLSASVGDRVTVTCRASQSIYIWLAWYQQKPGKAPNLLIYKASSLETGVPSRFSGSGSGTEFTLTISSLQPDDFATYYCQQYYGSSRTFGQGTKVEIKRTVAAPSVFIFPPSDEQLKSGTASVVCLLNNFYPREAKVQWKVDNALQSGNSQESVTEQDSKDSTYSLSSTLTLSKADYEKHKVYACEVTHQGLSSPVTKSFNRGEC heavy: EVQLVESGGGLVQPGGSLRLSCAASGFTFSSYWMSWVRQAPGKGLEWVANIKQEGSEKYYVDSVKGRFTISRDNAKNSLYLQMNSLRAEDTAVYYCARDRAVAGAFDIWGQGTMVTVSSASTKGPSVFPLAPSSKSTSGGTAALGCLVKDYFPEPVTVSWNSGALTSGVHTFPAVLQSSGLYSLSSVVTVPSSSLGTQTYICNVNHKPSNTKVDKKVEPKSCDKTHTCPPCPAPEAAGAPSVFLFPPKPKDTLMISRTPEVTCVVVDVSHEDPEVKFNWYVDGVEVHNAKTKPREEQYNSTYRVVSVLTVLHQDWLNGKEYKCKVSNKALPAPIEKTISKAKGQPREPQVYTLPPSREEMTKNQVSLTCLVKGFYPSDIAVEWESNGQPENNYKTTPPVLDSDGSFFLYSKLTVDKSRWQQGNVFSCSVMHEALHNHYTQKSLSLSPGGGSGGSEVQLEESGGGLVKPGGSLRLSCAASGFTFSDYYMSWFRQAPGKGLEWVSYISSSGSITDYADAVKGRFNISRDNAKNSLYLQMNSLRAEDTAVYYCAREREAVAGTLDFDNWGQGTLVTVSS | binds | binds
4 | PR007137 (bispecific antibody, human IgG1, kappa, PD-L1x4-1BB IgG-VH: PR000265 + VH of PR007290 at heavy-chain C-terminus) light: DIQMTQSPSTLSASVGDRVTVTCRASQSIYIWLAWYQQKPGKAPNLLIYKASSLETGVPSRFSGSGSGTEFTLTISSLQPDDFATYYCQQYYGSSRTFGQGTKVEIKRTVAAPSVFIFPPSDEQLKSGTASVVCLLNNFYPREAKVQWKVDNALQSGNSQESVTEQDSKDSTYSLSSTLTLSKADYEKHKVYACEVTHQGLSSPVTKSFNRGEC heavy: EVQLVESGGGLVQPGGSLRLSCAASGFTFSSYWMSWVRQAPGKGLEWVANIKQEGSEKYYVDSVKGRFTISRDNAKNSLYLQMNSLRAEDTAVYYCARDRAVAGAFDIWGQGTMVTVSSASTKGPSVFPLAPSSKSTSGGTAALGCLVKDYFPEPVTVSWNSGALTSGVHTFPAVLQSSGLYSLSSVVTVPSSSLGTQTYICNVNHKPSNTKVDKKVEPKSCDKTHTCPPCPAPEAAGAPSVFLFPPKPKDTLMISRTPEVTCVVVDVSHEDPEVKFNWYVDGVEVHNAKTKPREEQYNSTYRVVSVLTVLHQDWLNGKEYKCKVSNKALPAPIEKTISKAKGQPREPQVYTLPPSREEMTKNQVSLTCLVKGFYPSDIAVEWESNGQPENNYKTTPPVLDSDGSFFLYSKLTVDKSRWQQGNVFSCSVMHEALHNHYTQKSLSLSPGGGSGGSEVQLVESGGGVVQPGRSLRLSCAASGFTFSDYYMSWFRQAPGKGLEWVSYISSSGTTIDYADSVKGRFTISRDNAKNSLYLQMNSLRAEDTAVYYCAREREEVAGTLDFDYWGQGTPVTVSS | binds | binds
5 | PR007141 (bispecific antibody, human IgG1, kappa, PD-L1x4-1BB IgG-VH: PR000265 + VH of PR007294 at heavy-chain C-terminus) light: DIQMTQSPSTLSASVGDRVTVTCRASQSIYIWLAWYQQKPGKAPNLLIYKASSLETGVPSRFSGSGSGTEFTLTISSLQPDDFATYYCQQYYGSSRTFGQGTKVEIKRTVAAPSVFIFPPSDEQLKSGTASVVCLLNNFYPREAKVQWKVDNALQSGNSQESVTEQDSKDSTYSLSSTLTLSKADYEKHKVYACEVTHQGLSSPVTKSFNRGEC heavy: EVQLVESGGGLVQPGGSLRLSCAASGFTFSSYWMSWVRQAPGKGLEWVANIKQEGSEKYYVDSVKGRFTISRDNAKNSLYLQMNSLRAEDTAVYYCARDRAVAGAFDIWGQGTMVTVSSASTKGPSVFPLAPSSKSTSGGTAALGCLVKDYFPEPVTVSWNSGALTSGVHTFPAVLQSSGLYSLSSVVTVPSSSLGTQTYICNVNHKPSNTKVDKKVEPKSCDKTHTCPPCPAPEAAGAPSVFLFPPKPKDTLMISRTPEVTCVVVDVSHEDPEVKFNWYVDGVEVHNAKTKPREEQYNSTYRVVSVLTVLHQDWLNGKEYKCKVSNKALPAPIEKTISKAKGQPREPQVYTLPPSREEMTKNQVSLTCLVKGFYPSDIAVEWESNGQPENNYKTTPPVLDSDGSFFLYSKLTVDKSRWQQGNVFSCSVMHEALHNHYTQKSLSLSPGGGSGGSEVQLVESGGGLVKPGGSLRLSCVASGFTFSDYYMSWFRQAPGKGLEWVSYISGSGTTIDYADSVKGRFTISRDNAKNSLYLQMNSLRAEDTAVYYCAREREPVAGTLDFDNWGQGTLVTVSS | binds | binds
6 | PR007139 (bispecific antibody, human IgG1, kappa, PD-L1x4-1BB IgG-VH: PR000265 + VH of PR007292 at heavy-chain C-terminus) light: DIQMTQSPSTLSASVGDRVTVTCRASQSIYIWLAWYQQKPGKAPNLLIYKASSLETGVPSRFSGSGSGTEFTLTISSLQPDDFATYYCQQYYGSSRTFGQGTKVEIKRTVAAPSVFIFPPSDEQLKSGTASVVCLLNNFYPREAKVQWKVDNALQSGNSQESVTEQDSKDSTYSLSSTLTLSKADYEKHKVYACEVTHQGLSSPVTKSFNRGEC heavy: EVQLVESGGGLVQPGGSLRLSCAASGFTFSSYWMSWVRQAPGKGLEWVANIKQEGSEKYYVDSVKGRFTISRDNAKNSLYLQMNSLRAEDTAVYYCARDRAVAGAFDIWGQGTMVTVSSASTKGPSVFPLAPSSKSTSGGTAALGCLVKDYFPEPVTVSWNSGALTSGVHTFPAVLQSSGLYSLSSVVTVPSSSLGTQTYICNVNHKPSNTKVDKKVEPKSCDKTHTCPPCPAPEAAGAPSVFLFPPKPKDTLMISRTPEVTCVVVDVSHEDPEVKFNWYVDGVEVHNAKTKPREEQYNSTYRVVSVLTVLHQDWLNGKEYKCKVSNKALPAPIEKTISKAKGQPREPQVYTLPPSREEMTKNQVSLTCLVKGFYPSDIAVEWESNGQPENNYKTTPPVLDSDGSFFLYSKLTVDKSRWQQGNVFSCSVMHEALHNHYTQKSLSLSPGGGSGGSEVQLVESGGGLVKPGGSLRLSCAASGFTFSDYYMSWIRQAPGKGLEWVSYISSSGSTIDYADSVKGRFTISRDNAKNSLYLQMNSLRAEDTAVYYCAREREEVAGTLDYDNWGQGTLVTVSS | binds | binds
